The results in this text go back to doi:10.1101/2020.11.17.387829v1.

Substrate in the data set: O=[N+]([O-])c1ccc(O[C@@H]2O[C@H](CO)[C@@H](O)[C@H](O)[C@H]2O)cc1
The data set can be described thus: purified protein.

The mark [1] stands for this setting: average of two wild-type replicates (WT-1 2.4 mM, WT-2 5.3 ± 0.4 mM).
The mark [2] stands for this setting: poorly determined fit: large printed errors.
Setting [3] is: error exceeds the value, nearly inactive.

Like-named read-outs stand apart in the source and are kept apart here.

B1: β-glucosidase B (BglB) (Paenibacillus polymyxa) (protein)
chain: MSENTFIFPATFMWGTSTSSYQIEGGTDEGGRTPSIWDTFCQIPGKVIGGDCGDVACDHFHHFKEDVQLMKQLGFLHYRFSVAWPRIMPAAGIINEEGLLFYEHLLDEIELAGLIPMLTLYHWDLPQWIEDEGGWTQRETIQHFKTYASVIMDRFGERINWWNTINEPYCASILGYGTGEHAPGHENWREAFTAAHHILMCHGIASNLHKEKGLTGKIGITLNMEHVDAASERPEDVAAAIRRDGFINRWFAEPLFNGKYPEDMVEWYGTYLNGLDFVQPGDMELIQQPGDFLGINYYTRSIIRSTNDASLLQVEQVHMEEPVTDMGWEIHPESFYKLLTRIEKDFSKGLPILITENGAAMRDELVNGQIEDTGRHGYIEEHLKACHRFIEEGGQLKGYFVWSFLDNFEWAWGYSKRFGIVHINYETQERTPKQSALWFKQMMAKNGF
For B1, under setting [1], the Km – broadly, the substrate concentration at which the rate is half of its maximum – stood at 3.9 ± 0.3 mM and the turnover number (kcat) (usually the maximal rate divided by the concentration of active sites) is 12.4 ± 0.158 s⁻¹.

B2: β-glucosidase B (BglB) (Paenibacillus polymyxa; H181M) (protein)
chain: MSENTFIFPATFMWGTSTSSYQIEGGTDEGGRTPSIWDTFCQIPGKVIGGDCGDVACDHFHHFKEDVQLMKQLGFLHYRFSVAWPRIMPAAGIINEEGLLFYEHLLDEIELAGLIPMLTLYHWDLPQWIEDEGGWTQRETIQHFKTYASVIMDRFGERINWWNTINEPYCASILGYGTGEMAPGHENWREAFTAAHHILMCHGIASNLHKEKGLTGKIGITLNMEHVDAASERPEDVAAAIRRDGFINRWFAEPLFNGKYPEDMVEWYGTYLNGLDFVQPGDMELIQQPGDFLGINYYTRSIIRSTNDASLLQVEQVHMEEPVTDMGWEIHPESFYKLLTRIEKDFSKGLPILITENGAAMRDELVNGQIEDTGRHGYIEEHLKACHRFIEEGGQLKGYFVWSFLDNFEWAWGYSKRFGIVHINYETQERTPKQSALWFKQMMAKNGF
For the protein B2, the Michaelis constant (Km) came to 5.6 ± 1.9 mM and the kcat turned out to be 11.98 ± 1.807 s⁻¹.

B3: β-glucosidase B (BglB) (Paenibacillus polymyxa; F418M) (protein)
chain: MSENTFIFPATFMWGTSTSSYQIEGGTDEGGRTPSIWDTFCQIPGKVIGGDCGDVACDHFHHFKEDVQLMKQLGFLHYRFSVAWPRIMPAAGIINEEGLLFYEHLLDEIELAGLIPMLTLYHWDLPQWIEDEGGWTQRETIQHFKTYASVIMDRFGERINWWNTINEPYCASILGYGTGEHAPGHENWREAFTAAHHILMCHGIASNLHKEKGLTGKIGITLNMEHVDAASERPEDVAAAIRRDGFINRWFAEPLFNGKYPEDMVEWYGTYLNGLDFVQPGDMELIQQPGDFLGINYYTRSIIRSTNDASLLQVEQVHMEEPVTDMGWEIHPESFYKLLTRIEKDFSKGLPILITENGAAMRDELVNGQIEDTGRHGYIEEHLKACHRFIEEGGQLKGYFVWSFLDNFEWAWGYSKRMGIVHINYETQERTPKQSALWFKQMMAKNGF
As for B3, under setting [2], the Michaelis constant (Km) is reported as 29.6 ± 20.5 mM and the kcat was 0.37 ± 0.572 s⁻¹.

B4: β-glucosidase B (BglB) (Paenibacillus polymyxa; E409W) (protein)
chain: MSENTFIFPATFMWGTSTSSYQIEGGTDEGGRTPSIWDTFCQIPGKVIGGDCGDVACDHFHHFKEDVQLMKQLGFLHYRFSVAWPRIMPAAGIINEEGLLFYEHLLDEIELAGLIPMLTLYHWDLPQWIEDEGGWTQRETIQHFKTYASVIMDRFGERINWWNTINEPYCASILGYGTGEHAPGHENWREAFTAAHHILMCHGIASNLHKEKGLTGKIGITLNMEHVDAASERPEDVAAAIRRDGFINRWFAEPLFNGKYPEDMVEWYGTYLNGLDFVQPGDMELIQQPGDFLGINYYTRSIIRSTNDASLLQVEQVHMEEPVTDMGWEIHPESFYKLLTRIEKDFSKGLPILITENGAAMRDELVNGQIEDTGRHGYIEEHLKACHRFIEEGGQLKGYFVWSFLDNFWWAWGYSKRFGIVHINYETQERTPKQSALWFKQMMAKNGF
Regarding B4, under setting [3], the Km was 2.5 ± 3.1 mM and the kcat turned out to be 0.0017 ± 0.0017 s⁻¹.

B5: β-glucosidase B (BglB) (Paenibacillus polymyxa; L174M) (protein)
chain: MSENTFIFPATFMWGTSTSSYQIEGGTDEGGRTPSIWDTFCQIPGKVIGGDCGDVACDHFHHFKEDVQLMKQLGFLHYRFSVAWPRIMPAAGIINEEGLLFYEHLLDEIELAGLIPMLTLYHWDLPQWIEDEGGWTQRETIQHFKTYASVIMDRFGERINWWNTINEPYCASIMGYGTGEHAPGHENWREAFTAAHHILMCHGIASNLHKEKGLTGKIGITLNMEHVDAASERPEDVAAAIRRDGFINRWFAEPLFNGKYPEDMVEWYGTYLNGLDFVQPGDMELIQQPGDFLGINYYTRSIIRSTNDASLLQVEQVHMEEPVTDMGWEIHPESFYKLLTRIEKDFSKGLPILITENGAAMRDELVNGQIEDTGRHGYIEEHLKACHRFIEEGGQLKGYFVWSFLDNFEWAWGYSKRFGIVHINYETQERTPKQSALWFKQMMAKNGF
Take B5: the Km came out at 4.3 ± 0.3 mM and the catalytic constant (kcat) is 14.79 ± 0.405 s⁻¹.

B6: β-glucosidase B (BglB) (Paenibacillus polymyxa; N163E) (protein)
chain: MSENTFIFPATFMWGTSTSSYQIEGGTDEGGRTPSIWDTFCQIPGKVIGGDCGDVACDHFHHFKEDVQLMKQLGFLHYRFSVAWPRIMPAAGIINEEGLLFYEHLLDEIELAGLIPMLTLYHWDLPQWIEDEGGWTQRETIQHFKTYASVIMDRFGERINWWETINEPYCASILGYGTGEHAPGHENWREAFTAAHHILMCHGIASNLHKEKGLTGKIGITLNMEHVDAASERPEDVAAAIRRDGFINRWFAEPLFNGKYPEDMVEWYGTYLNGLDFVQPGDMELIQQPGDFLGINYYTRSIIRSTNDASLLQVEQVHMEEPVTDMGWEIHPESFYKLLTRIEKDFSKGLPILITENGAAMRDELVNGQIEDTGRHGYIEEHLKACHRFIEEGGQLKGYFVWSFLDNFEWAWGYSKRFGIVHINYETQERTPKQSALWFKQMMAKNGF
As for B6, under “error exceeds the value”, the Km is 21.4 ± 52.4 mM and the kcat came to 1.02 ± 0.483 s⁻¹.

B7: β-glucosidase B (BglB) (Paenibacillus polymyxa; M224L) (protein)
chain: MSENTFIFPATFMWGTSTSSYQIEGGTDEGGRTPSIWDTFCQIPGKVIGGDCGDVACDHFHHFKEDVQLMKQLGFLHYRFSVAWPRIMPAAGIINEEGLLFYEHLLDEIELAGLIPMLTLYHWDLPQWIEDEGGWTQRETIQHFKTYASVIMDRFGERINWWNTINEPYCASILGYGTGEHAPGHENWREAFTAAHHILMCHGIASNLHKEKGLTGKIGITLNLEHVDAASERPEDVAAAIRRDGFINRWFAEPLFNGKYPEDMVEWYGTYLNGLDFVQPGDMELIQQPGDFLGINYYTRSIIRSTNDASLLQVEQVHMEEPVTDMGWEIHPESFYKLLTRIEKDFSKGLPILITENGAAMRDELVNGQIEDTGRHGYIEEHLKACHRFIEEGGQLKGYFVWSFLDNFEWAWGYSKRFGIVHINYETQERTPKQSALWFKQMMAKNGF
Consider B7, for which the Km worked out at 4.2 mM and the turnover number (kcat) is 10.51 s⁻¹.
